Source: publication PMC10011822 (The Journal of Biological Chemistry, 2023)

B2: N99A SufS (enzyme, E. coli)
chain: MIFSVDKVRADFPVLSREVNGLPLAYLDSAASAQKPSQVIDAEAEFYRHGYAAVHRGIHTLSAQATEKMENVRKRASLFINARSAEELVFVRGTTEGIALVANSWGNSNVRAGDNIIISQMEHHANIVPWQMLCARVGAELRVIPLNPDGTLQLETLPTLFDEKTRLLAITHVSNVLGTENPLAEMITLAHQHGAKVLVDGAQAVMHHPVDVQALDCDFYVFSGHKLYGPTGIGILYVKEALLQEMPPWEGGGSMIATVSLSEGTTWTKAPWRFEAGTPNTGGIIGLGAALEYVSALGLNNIAEYEQNLMHYALSQLESVPDLTLYGPQNRLGVIAFNLGKHHAYDVGSFLDNYGIAVRTGHHCAMPLMAYYNVPAMCRASLAMYNTHEEVDRLVTGLQRIHRLLG
notes: SufS cysteine desulfurase, E. coli, UniProt P77444, with N99A; gene in pET-21(a); Carries the PLP cofactor; No tag named; Dimer in the crystal structure; also called SufS N99A; source: E. coli BL21(DE3)Δsuf, pET21, purified (Q-XL, Phenyl HP, Superdex 200)
B3: N99D SufS (enzyme, E. coli)
chain: MIFSVDKVRADFPVLSREVNGLPLAYLDSAASAQKPSQVIDAEAEFYRHGYAAVHRGIHTLSAQATEKMENVRKRASLFINARSAEELVFVRGTTEGIDLVANSWGNSNVRAGDNIIISQMEHHANIVPWQMLCARVGAELRVIPLNPDGTLQLETLPTLFDEKTRLLAITHVSNVLGTENPLAEMITLAHQHGAKVLVDGAQAVMHHPVDVQALDCDFYVFSGHKLYGPTGIGILYVKEALLQEMPPWEGGGSMIATVSLSEGTTWTKAPWRFEAGTPNTGGIIGLGAALEYVSALGLNNIAEYEQNLMHYALSQLESVPDLTLYGPQNRLGVIAFNLGKHHAYDVGSFLDNYGIAVRTGHHCAMPLMAYYNVPAMCRASLAMYNTHEEVDRLVTGLQRIHRLLG
notes: SufS cysteine desulfurase, E. coli, UniProt P77444, with N99D; gene in pET-21(a); Carries the PLP cofactor; No tag named; Dimer in the crystal structure; residues 248 to 268 have no electron density; also called SufS N99D; source: E. coli BL21(DE3)Δsuf, pET21, purified (Q-XL, Phenyl HP, Superdex 200)

What was measured:
SufS = SufS (Escherichia coli, UniProt P77444); settings: no SufE, 500 μM cysteine, with and without 2 mM TCEP, pH 8.0, 25 °C
SufE (Escherichia coli) = SufE (Escherichia coli) (UniProt P76194); settings: cited from earlier work
N99D SufS [1] = molecular target: B3; assay: fluorescence polarisation; SufS (0.2-40 μM) titrated against 100 nM BODIPY-labelled C51A/E107C SufE; no cysteine; 50 mM MOPS pH 8, 150 mM NaCl, 0.1 mg/ml BSA; 30 min at room temperature; black 96-well plates; fit to a single-affinity site (Equation 3); settings: both partners purified
N99A SufS [2] = molecular target: B2; assay: as above; settings: both partners purified
[3] = molecular target: T1, SufS cysteine desulfurase, wild type (E. coli, UniProt P77444 1-406); assay: as above; settings: both partners purified
T1 construct: SufS cysteine desulfurase, E. coli, UniProt P77444; gene in pET-21(a); PLP-dependent enzyme; as purified it carries the pyridoxal-5'-phosphate cofactor (internal aldimine); also called WT SufS; wt SufS; source: E. coli BL21(DE3)Δsuf, pET21, purified (Q-XL, Phenyl HP, Superdex 200)
T1 sequence: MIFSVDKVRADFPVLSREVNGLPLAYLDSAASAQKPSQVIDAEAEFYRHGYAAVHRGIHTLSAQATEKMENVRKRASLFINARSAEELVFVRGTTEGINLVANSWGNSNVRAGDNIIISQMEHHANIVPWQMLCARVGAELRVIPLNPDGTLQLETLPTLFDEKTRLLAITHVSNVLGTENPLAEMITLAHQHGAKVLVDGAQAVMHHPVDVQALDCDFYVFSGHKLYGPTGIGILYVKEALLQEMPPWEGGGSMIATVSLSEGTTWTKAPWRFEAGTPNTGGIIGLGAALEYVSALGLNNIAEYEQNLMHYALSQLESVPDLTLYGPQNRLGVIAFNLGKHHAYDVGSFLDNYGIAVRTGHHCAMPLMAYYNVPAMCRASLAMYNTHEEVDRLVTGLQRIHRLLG

D346R SufS = molecular target: T2, D346R SufS (E. coli, UniProt P77444 1-406, D346R); assay: as above; settings: both partners purified
T2 construct: SufS cysteine desulfurase, E. coli, UniProt P77444, with D346R; gene in pET-21(a); No tag named; nothing is said of the oligomeric state of this variant; source: E. coli BL21(DE3)Δsuf, pET21, purified (Q-XL, Phenyl HP, Superdex 200)
T2 sequence: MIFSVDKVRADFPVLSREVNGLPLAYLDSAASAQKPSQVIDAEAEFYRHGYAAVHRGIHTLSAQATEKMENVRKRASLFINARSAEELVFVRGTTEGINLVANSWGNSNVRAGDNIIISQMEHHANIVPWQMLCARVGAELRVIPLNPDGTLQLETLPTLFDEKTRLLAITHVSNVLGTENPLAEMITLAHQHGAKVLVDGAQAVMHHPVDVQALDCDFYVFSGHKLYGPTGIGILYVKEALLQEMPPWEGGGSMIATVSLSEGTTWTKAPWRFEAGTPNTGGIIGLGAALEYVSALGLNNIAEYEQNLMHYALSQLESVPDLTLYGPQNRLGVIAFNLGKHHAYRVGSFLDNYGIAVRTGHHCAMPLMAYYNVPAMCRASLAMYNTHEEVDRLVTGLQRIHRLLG

N99D SufS [4] = molecular target: B3; assay: fluorescence polarisation; as without cysteine, but in the presence of 500 μM cysteine: SufS titrated against 100 nM BODIPY-labelled C51A/E107C SufE; 50 mM MOPS pH 8, 150 mM NaCl, 0.1 mg/ml BSA; room temperature; settings: both partners purified
N99A SufS [5] = molecular target: B2; assay: as above; settings: both partners purified
[6] = molecular target: T1, SufS cysteine desulfurase, wild type; assay: as above; settings: both partners purified
[7] = molecular target: the molecule itself; assay: crystal structure; sitting drop vapor diffusion at 20 °C, 4 to 4.5 M NaCl, 100 mM MES pH 6.5; SufS variant alone, dimer

Molecule: N[C@@H](CS)C(=O)O [cysteine]
- alanine production plate-reader assay; UV-visible cysteine-PLP intermediates (SufS): WT SufS is also capable of producing alanine

Molecule: SufS (from UniProt P77444)
- Kd (SufE (Escherichia coli)): 0.5 µM

B1: BODIPY-labelled C51A/E107C SufE (natural protein, E. coli)
chain: MALLPDKEKLLRNFLRCANWEEKYLYIIELGQRLPELRDEDRSPQNSIQGAQSQVWIVMRQNAQGIIELQGDSDAAIVKGLIAVVFILYDQMTPQDIVNFDVRPWFCKMALTQHLTPSRSQGLEAMIRAIRAKAAALS
modifications: BODIPY FL maleimide on the cysteine at 107 (E107C); labelling efficiency between 60 and 80%
notes: SufE transpersulfurase, E. coli, UniProt P76194, with C51A and E107C; gene in pET-21(a); No tag named; also called labeled C51A/E107C SufE; BODPIY-C51A/E107C SufE; source: E. coli BL21(DE3), pET21, purified (Q-XL, Superdex 200), labelled with BODIPY FL maleimide
- Kd (N99D SufS [1]): 9.9 ± 3 µM
- Kd (N99A SufS [2]): 6.2 ± 1.8 µM
- Kd [3]: 5.2 µM
- Kd (D346R SufS): > 40 µM
- Kd (N99D SufS [4]): 3.3 ± 0.7 µM
- Kd (N99A SufS [5]): 3.1 ± 0.6 µM
- Kd [6]: 0.6 ± 0.2 µM

Molecule: B2
- binding result [7]: binds

Molecule: B3
- binding result [7]: binds
